According to PMC5316958, “A combination of mutational and computational scanning guides the design of an artificial ligand-binding controlled lipase” (Scientific Reports, 2017):
Values joined by “and” are separate entries in the source; they are usually repeats but may differ in a detail not shown here. Identical values can stand only once.

Tests used:
[1] = target: T1, Bacillus subtilis lipase A (BsLA) (Bacillus subtilis, UniProt P37957); experiment: hydrolysis of p-NPB by purified enzyme, p-nitrophenolate release at […] nm (specific activity); format: biochemical
T1 construct: gene estA; purified wild-type BsLA

SAXS = target: the molecule itself; experiment: SAXS
[2] = target: the molecule itself; experiment: AUC; sedimentation velocity, CitAP-BsLA 0.5 mg/ml, 10 mM glycine buffer pH 10, 10 mM NaCl, with or without 1 mM sodium citrate, 25 °C, 40 krpm; c(s) with Bayesian prior, discrete species of known mass; monomer, dimer and higher oligomers

Molecule | hydrolysis of p-NPB by purified enzyme, p-nitrophenolate release at 410 nm (spec) [1] [U/mg] | Kd (SAXS) | stoichiometry N [2]
CCCC(=O)Oc1ccc([N+](=O)[O-])cc1 [p-nitrophenylbutyrate] | 181 ± 3 | – | –
CitAP-BsLA (enzyme) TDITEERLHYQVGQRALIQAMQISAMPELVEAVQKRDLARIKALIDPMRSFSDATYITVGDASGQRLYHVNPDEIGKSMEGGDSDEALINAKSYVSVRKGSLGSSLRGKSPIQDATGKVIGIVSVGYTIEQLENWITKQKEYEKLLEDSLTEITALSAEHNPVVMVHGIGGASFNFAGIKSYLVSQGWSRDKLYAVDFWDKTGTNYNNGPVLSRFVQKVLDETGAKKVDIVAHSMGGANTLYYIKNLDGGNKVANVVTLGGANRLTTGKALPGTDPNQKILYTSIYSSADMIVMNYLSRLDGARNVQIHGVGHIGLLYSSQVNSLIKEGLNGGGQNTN | – | 24 µM and 29 µM | 2
